{"source": "patent US20190241619A1", "data": [{"molecular_target": "HLA-A2 (human)", "assay": "experimental peptide-HLA binding affinity; method not described", "units": {"Binding affinity": "µM"}, "values": [{"binder": "YMLDLQPETT (modifications not checked)", "note": "[HPV16 E7/11-20 peptide …]", "Binding affinity": 2.19}, {"binder": "YMLDLQPETTD (modifications not checked)", "note": "[HPV16 E7/11-21 peptide …]", "Binding affinity": 2.37}, {"binder": "MLDLQPET (modifications not checked)", "note": "[HPV16 E7/12-19 peptide MLDLQPET]", "Binding affinity": 53.7}, {"binder": "MLDLQPETT (modifications not checked)", "note": "[HPV16 E7/12-20 peptide …]", "Binding affinity": 3.6}, {"binder": "YMLDLQPE (modifications not checked)", "note": "[HPV16 E7/11-18 peptide YMLDLQPE]", "Binding affinity": 8.07}]}, {"molecular_target": "HLA-A1 (human)", "assay": "experimental peptide-HLA binding affinity; method not described", "units": {"Binding affinity": "µM"}, "values": [{"binder": "ETTDLYCY (modifications not checked)", "note": "[HPV16 E7/18-25 peptide ETTDLYCY]", "Binding affinity": 11.5}, {"binder": "DLQPETTDLY (modifications not checked)", "note": "[HPV16 E7/14-23 peptide …]", "Binding affinity": 1.62}]}]}
